Numbering of substitutions follows the chain as printed.
B1: Ab15 Fab (Fab, V domains shown)
VH: EVQLQQSGPELVKPGASVKISCKASGYSFTGYYMNWVKQSPEKSLEWIGEINPNFGGTTYNQKFKAKATLTVDKSSSTAYMQLKSLTSEDSAVYYCARYYGNLYAMDYWGQGTSVTVS
VL: DILMTQSPSSMSVSLGDTVSITCHASQGISSNIGWLQQKPGKSFKGLIYHGTNLEDGVPSRFSGSGSGAAYSLTISSLESEDFADYYCVQYTHFPYTFGGGTKLEIK
B2: Ab16 Fab (Fab, V domains shown)
VH: B1 VH with T30N, G31N, F55S, G57Y, T59S, K65R, S77T, Y100F, Y104F, Y108F
VL: B1 VL with S30G, H50L, A70D, T92V, H93Q
B3: Ab17 Fab (Fab, V domains shown)
VH: EVQLQQSGPELVKPGASVKISCKASGYSFTDYYMNWVKQSPEKSLEWIGEINPNTGGTTYNQKFKAKATLTVDKSSSTAYMQLKSLTSEDSAVYYCARYYGNLYAMDYWGQGTSVTVSS
VL: B1 VL with A70D, T92V, H93Q, F98L
B4: Ab19 Fab (Fab, V domains shown)
VH: QVQLQQSGAELARPGASVKLSCKASGYPFTSYGINWVKQRTGQGLEWIGEIYPRIGNTYYNEKFKGKATLTADKSSSTAYMEFRSLTSEDSAVYFCARSWNSNYGEYYFDYWGQGTTLTVS
VL: DIVMTQSHKFMSTSIGDRVSITCKASHDVSTAVAWYQQKPGQSPKLLIYWASTRHTGVPDRFTGSGSGTDYTLTIRSVQAEDLALYYCQQHYSTPYTFGGGTKLEIK
B5: Ab20 Fab (Fab, V domains shown)
VH: EVQLQQSGPELVKPGASVKISCKASGFSFTGYSMNWMKQSPEKSLEWIGEINPTTGGTTYNQKFKAKATLTVDKSSSTAYIQLKSLTSEDSAVYYCARGRADYWGQGTTLTVSS
VL: DIVLTQSPASLAVSLGQRATISCRASESVEYYGTGLVQWFQQKPGQPPKLLIYAASNVESGVPARFSGSGSGTDFSLNIHSVEEDDIAMYFCHQSRKLPWTFGGGTKLEIK

biological target: RaTG13; test: BLI with recombinant Fabs, drawn table of KD (µM)

Q: For B1, which Kd is on record?
A: 1.2 µM

Q: How did the Kd turn out when B2 was run?
A: 0.2 µM

Q: With B3 as the binder, how does the Kd read?
A: 0.18 µM

Q: For B4, which Kd is on record?
A: > 100 µM

Q: For B5, which Kd is on record?
A: > 100 µM

biological target: SHC014; test: BLI with recombinant Fabs, drawn table of KD (µM)

Q: Which Kd does the source give for B2 here?
A: 0.09 µM

Q: With B3 as the binder, how does the Kd read?
A: 0.09 µM

Q: How did the Kd turn out when B4 was run?
A: > 100 µM

Q: B5 was tested. Which Kd did it give?
A: > 100 µM

biological target: T1, SARS-2 RBD (wild-type SARS-CoV-2 receptor binding domain, monomer) (SARS-CoV-2, UniProt P0DTC2 319-529); test: BLI with recombinant Fabs, drawn table of KD (µM)

Q: B1 was tested. Which Kd did it give?
A: 1.1 µM

Q: With B2 as the binder, how does the Kd read?
A: 0.03 µM

Q: With B3 as the binder, how does the Kd read?
A: 0.07 µM

Q: Which Kd does the source give for B4 here?
A: 2 µM

Q: With B5 as the binder, how does the Kd read?
A: 0.03 µM

biological target: T2, SARS-1 RBD (SARS-CoV receptor binding domain, monomer) (SARS-CoV (SARS-1), UniProt P59594 306-515); test: BLI with recombinant Fabs, drawn table of KD (µM)

Q: For B2, which Kd is on record?
A: 0.1 µM

Q: B3 was tested. Which Kd did it give?
A: 0.08 µM

Q: For B4, which Kd is on record?
A: > 100 µM

Q: B5 was tested. Which Kd did it give?
A: > 100 µM

biological target: T3, WIV1 RBD (WIV1-CoV receptor binding domain, monomer) (WIV1-CoV); test: BLI with recombinant Fabs, drawn table of KD (µM)

Q: How did the Kd turn out when B2 was run?
A: 0.21 µM

Q: How did the Kd turn out when B3 was run?
A: 0.37 µM

Q: For B4, which Kd is on record?
A: > 100 µM

Q: Which Kd does the source give for B5 here?
A: > 100 µM

biological target: RaTG13; test: BLI with recombinant Fabs, drawn table of KD (µM); remark: another data set of the same source

Q: With B1 as the binder, how does the Kd read?
A: 1.2 µM

Q: With B4 as the binder, how does the Kd read?
A: > 100 µM

Q: How did the Kd turn out when B5 was run?
A: > 100 µM

biological target: SHC014; test: BLI with recombinant Fabs, drawn table of KD (µM); remark: another data set of the same source

Q: For B4, which Kd is on record?
A: > 100 µM

Q: With B5 as the binder, how does the Kd read?
A: > 100 µM

biological target: T1, SARS-2 RBD (wild-type SARS-CoV-2 …); test: BLI with recombinant Fabs, drawn table of KD (µM); remark: another data set of the same source

Q: How did the Kd turn out when B1 was run?
A: 1.1 µM

Q: Which Kd does the source give for B4 here?
A: 2 µM

biological target: T2, SARS-1 RBD (SARS-CoV receptor binding …); test: BLI with recombinant Fabs, drawn table of KD (µM); remark: another data set of the same source

Q: How did the Kd turn out when B4 was run?
A: > 100 µM

Q: Which Kd does the source give for B5 here?
A: > 100 µM

biological target: T3, WIV1 RBD (WIV1-CoV receptor binding …); test: BLI with recombinant Fabs, drawn table of KD (µM); remark: another data set of the same source

Q: With B4 as the binder, how does the Kd read?
A: > 100 µM

Q: B5 was tested. Which Kd did it give?
A: > 100 µM

— patent US20250032605A1 (GENERAL HOSPITAL, published 2025)
